# Measured values taken from patent US20120129766A1 (IRM, published 2012).
# Where a chain is given by its changes, count along the chain named. Numbers in names are those of the source.
# T1: human β-klotho (human, UniProt Q86Z14 1-1044)
# T1 sequence (looked up): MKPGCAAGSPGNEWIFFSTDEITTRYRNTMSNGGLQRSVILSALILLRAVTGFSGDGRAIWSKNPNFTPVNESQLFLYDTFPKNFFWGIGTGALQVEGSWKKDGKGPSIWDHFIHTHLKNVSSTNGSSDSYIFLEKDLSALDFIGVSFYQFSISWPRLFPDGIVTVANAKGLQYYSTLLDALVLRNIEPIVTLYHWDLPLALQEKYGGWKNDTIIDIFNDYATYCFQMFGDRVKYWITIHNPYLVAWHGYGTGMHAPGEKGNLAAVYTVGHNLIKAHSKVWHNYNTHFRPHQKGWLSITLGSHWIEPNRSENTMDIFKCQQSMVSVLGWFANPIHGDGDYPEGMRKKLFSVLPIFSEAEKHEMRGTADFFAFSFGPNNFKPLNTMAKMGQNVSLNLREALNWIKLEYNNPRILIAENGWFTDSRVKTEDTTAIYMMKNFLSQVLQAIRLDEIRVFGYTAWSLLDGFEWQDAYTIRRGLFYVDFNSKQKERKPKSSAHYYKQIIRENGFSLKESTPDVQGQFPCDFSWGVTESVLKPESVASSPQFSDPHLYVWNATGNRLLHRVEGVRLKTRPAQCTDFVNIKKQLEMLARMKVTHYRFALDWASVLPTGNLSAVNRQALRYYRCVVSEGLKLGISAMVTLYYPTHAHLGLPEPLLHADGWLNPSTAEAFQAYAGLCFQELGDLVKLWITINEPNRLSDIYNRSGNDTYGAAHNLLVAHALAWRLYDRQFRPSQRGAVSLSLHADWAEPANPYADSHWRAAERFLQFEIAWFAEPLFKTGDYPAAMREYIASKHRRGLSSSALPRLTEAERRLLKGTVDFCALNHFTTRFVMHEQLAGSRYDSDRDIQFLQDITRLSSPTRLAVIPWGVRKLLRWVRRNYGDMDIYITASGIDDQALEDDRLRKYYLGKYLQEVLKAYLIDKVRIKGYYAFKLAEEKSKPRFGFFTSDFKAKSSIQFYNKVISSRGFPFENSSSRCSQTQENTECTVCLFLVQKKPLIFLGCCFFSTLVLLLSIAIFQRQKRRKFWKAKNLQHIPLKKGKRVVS
# B1: hFGF21(33-209)-V83 (ligand)
# chain: DSSPLLQFGGQVRQRYLYTDDAQQTEAHLEIREDGTVGGAADQSPESLLELKALKPGVIQILGVKTSRFLCQKPDGTLYGSLHFDPEACSFRELLLEDGYNVYQSEAHGLPLHLPGNRSPHCDPASRGPARFLPLPGLPPALPEPPGILAPQPPDVGSSDPLAMVGPSQARSPSYAS
# B2: hFGF21(33-209)-WT-R154C (ligand)
# chain: B1 chain with E50Q, K73R, T77A, R118K, S126P, A163S, A170G
# B3: hFGF21(33-209)-WT-AM (ligand)
# chain: B1 chain with E50Q, K73R, T77A, R118K, C122R, S126P, L142P, A163S, A170G
# B4: hFGF21(33-209)-V84 (ligand)
# chain: B1 chain with K73R, A107T
# B5: hFGF21(33-209)-V85 (ligand)
# chain: B1 chain with D42H, T77A, D98E, S126P, R127Q, A170G
# B6: hFGF21(33-209)-WT-R154C-40 kDa bPEG-MA (ligand)
# chain: B1 chain with E50Q, K73R, T77A, R118K, S126P, A163S, A170G
# modifications: 40 kDa branched maleimido-PEG on Cys 154 (numbered on SEQ ID NO:1)
# B7: hFGF21(33-209)-WT-CH (ligand)
# chain: B1 chain with E50Q, K73R, T77A, R118K, C122R, S126P, A163S, A170G
# B8: hFGF21(33-209)-WT-N-40 kDa bPEG-AL (ligand)
# chain: B1 chain with E50Q, K73R, T77A, R118K, C122R, S126P, A163S, A170G
# modifications: 40 kDa branched PEG (aldehyde reagent) on the N-terminal amine
# B9: hFGF21(33-209)-V86 (ligand)
# chain: B1 chain with E50Q, K52R, K55R, K65R, K73R, T77A, C122K, S126P, L142P, A170G
# B10: hFGF21(33-209)-V87 (ligand)
# chain: DSSPLLQFGGQVRQRYLYTDDACQTEAHLEIREDGTVGGAADQSPESLLQLRALRPGVIQILGVRTSRFLCQRPDGALYGSLHFDPEACSFRELLLEDGYNVYQSEAHGLPLHLPCNRSPHKDPAPRGPARFLPLPGLPPAPPEPPGILAPQPPDVGSSDPLAMVGPSQGRSPSYAS
# Molecular target: T1, human β-klotho
# Experiment: cell-based or functional assay
"EC50 (nM), pERK In Cell Western [nM]",Fold-WT (EC50 of variant / EC50 of FGF21-WT) [fold],Binder
0.21,0.38,B1
4.2,1.3,B2
5.7,1.5,B3
4.5,1.1,B4
2,0.3,B5
9,2.9,B6
7.4,1,B7
20,6.3,B8
8.5,4.5,B9
1.9,1.6,B10
